Reference: PMC13463089, “PA200 modulates immunoproteasome structure and activity” (Nature Communications, 2026)
Numbered stars: 1 amine (or outer) side, 2 acyl side, 3 side chain; on linkers, the order of the positions; unused ones are H or OH. Peptide text beside a SMILES is read from it. * marks the point of attachment. AMC = Cc1cc(=O)oc2cc(N*)ccc12; Suc = O=C(CCC(=O)[*:2])[*:1]

Key:
[1] = target: human i20S purified from HEK293-EBNA cells (human) (UniProt P60900); assay: mass photometry; 20S at 120 nM titrated with PA200 (PA200:20S molar ratios from 0 to 15), Tris 50 mM pH 7.6, 2 h on ice, diluted six times to 20 nM 20S immediately before measurement; apparent KD from counts of free, singly- and doubly-capped 20S
[2] = target: human standard 20S proteasome (s20S) purchased from Enzo (human) (UniProt P60900); assay: as above
[3] = target: T1, i20S (20S immunoproteasome), beta5i site (Homo sapiens, UniProt P28062); assay: fluorogenic AMC release; format: biochemical; settings: chymotrypsin-like (beta5i) site; 200 uM substrate, 1.5 nM 20S, pH 7.6, 37 C
T1 construct: gene PSMB8; with Proteasome subunit beta type-9; Proteasome subunit beta type-10; Proteasome subunit alpha type-6; Proteasome subunit alpha type-2; Proteasome subunit alpha type-4; Proteasome subunit alpha type-7; Proteasome subunit alpha type-5; Proteasome subunit alpha type-1; Proteasome subunit alpha type-3; Proteasome subunit beta type-3; Proteasome subunit beta type-2; Proteasome subunit beta type-1; Proteasome subunit beta type-4
T1 sequence (P28062 73-276): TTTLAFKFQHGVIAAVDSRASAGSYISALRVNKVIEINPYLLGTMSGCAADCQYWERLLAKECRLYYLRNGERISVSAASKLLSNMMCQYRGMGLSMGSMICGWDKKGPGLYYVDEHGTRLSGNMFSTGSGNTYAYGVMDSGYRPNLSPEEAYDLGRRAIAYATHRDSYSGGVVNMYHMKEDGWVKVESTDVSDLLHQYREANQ

[4] = target: T2, s20S (standard 20S proteasome), beta5 site (Homo sapiens, UniProt P28074); assay: fluorogenic AMC release; format: biochemical; settings: chymotrypsin-like (beta5) site; 200 uM substrate, 1.5 nM 20S, pH 7.6, 37 C
T2 construct: gene PSMB5; with Proteasome subunit beta type-6; Proteasome subunit beta type-7; Proteasome subunit alpha type-6; Proteasome subunit alpha type-2; Proteasome subunit alpha type-4; Proteasome subunit alpha type-7; Proteasome subunit alpha type-5; Proteasome subunit alpha type-1; Proteasome subunit alpha type-3; Proteasome subunit beta type-3; Proteasome subunit beta type-2; Proteasome subunit beta type-1; Proteasome subunit beta type-4
T2 sequence (P28074 60-263): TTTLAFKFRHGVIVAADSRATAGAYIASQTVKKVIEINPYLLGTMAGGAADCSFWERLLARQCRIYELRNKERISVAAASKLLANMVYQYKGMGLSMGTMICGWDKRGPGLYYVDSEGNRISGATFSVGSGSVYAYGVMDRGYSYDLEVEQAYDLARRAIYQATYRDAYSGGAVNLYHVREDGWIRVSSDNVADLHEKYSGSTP

[5] = target: T3, recombinantly expressed and purified human PA200 (human), Q14997; assay: mass photometry; 20S at 120 nM titrated with PA200 (PA200:20S molar ratios from 0 to 15), Tris 50 mM pH 7.6, 2 h on ice, diluted six times to 20 nM 20S immediately before measurement; apparent KD from counts of free, singly- and doubly-capped 20S; settings: remark: other sources report otherwise
T3 chain: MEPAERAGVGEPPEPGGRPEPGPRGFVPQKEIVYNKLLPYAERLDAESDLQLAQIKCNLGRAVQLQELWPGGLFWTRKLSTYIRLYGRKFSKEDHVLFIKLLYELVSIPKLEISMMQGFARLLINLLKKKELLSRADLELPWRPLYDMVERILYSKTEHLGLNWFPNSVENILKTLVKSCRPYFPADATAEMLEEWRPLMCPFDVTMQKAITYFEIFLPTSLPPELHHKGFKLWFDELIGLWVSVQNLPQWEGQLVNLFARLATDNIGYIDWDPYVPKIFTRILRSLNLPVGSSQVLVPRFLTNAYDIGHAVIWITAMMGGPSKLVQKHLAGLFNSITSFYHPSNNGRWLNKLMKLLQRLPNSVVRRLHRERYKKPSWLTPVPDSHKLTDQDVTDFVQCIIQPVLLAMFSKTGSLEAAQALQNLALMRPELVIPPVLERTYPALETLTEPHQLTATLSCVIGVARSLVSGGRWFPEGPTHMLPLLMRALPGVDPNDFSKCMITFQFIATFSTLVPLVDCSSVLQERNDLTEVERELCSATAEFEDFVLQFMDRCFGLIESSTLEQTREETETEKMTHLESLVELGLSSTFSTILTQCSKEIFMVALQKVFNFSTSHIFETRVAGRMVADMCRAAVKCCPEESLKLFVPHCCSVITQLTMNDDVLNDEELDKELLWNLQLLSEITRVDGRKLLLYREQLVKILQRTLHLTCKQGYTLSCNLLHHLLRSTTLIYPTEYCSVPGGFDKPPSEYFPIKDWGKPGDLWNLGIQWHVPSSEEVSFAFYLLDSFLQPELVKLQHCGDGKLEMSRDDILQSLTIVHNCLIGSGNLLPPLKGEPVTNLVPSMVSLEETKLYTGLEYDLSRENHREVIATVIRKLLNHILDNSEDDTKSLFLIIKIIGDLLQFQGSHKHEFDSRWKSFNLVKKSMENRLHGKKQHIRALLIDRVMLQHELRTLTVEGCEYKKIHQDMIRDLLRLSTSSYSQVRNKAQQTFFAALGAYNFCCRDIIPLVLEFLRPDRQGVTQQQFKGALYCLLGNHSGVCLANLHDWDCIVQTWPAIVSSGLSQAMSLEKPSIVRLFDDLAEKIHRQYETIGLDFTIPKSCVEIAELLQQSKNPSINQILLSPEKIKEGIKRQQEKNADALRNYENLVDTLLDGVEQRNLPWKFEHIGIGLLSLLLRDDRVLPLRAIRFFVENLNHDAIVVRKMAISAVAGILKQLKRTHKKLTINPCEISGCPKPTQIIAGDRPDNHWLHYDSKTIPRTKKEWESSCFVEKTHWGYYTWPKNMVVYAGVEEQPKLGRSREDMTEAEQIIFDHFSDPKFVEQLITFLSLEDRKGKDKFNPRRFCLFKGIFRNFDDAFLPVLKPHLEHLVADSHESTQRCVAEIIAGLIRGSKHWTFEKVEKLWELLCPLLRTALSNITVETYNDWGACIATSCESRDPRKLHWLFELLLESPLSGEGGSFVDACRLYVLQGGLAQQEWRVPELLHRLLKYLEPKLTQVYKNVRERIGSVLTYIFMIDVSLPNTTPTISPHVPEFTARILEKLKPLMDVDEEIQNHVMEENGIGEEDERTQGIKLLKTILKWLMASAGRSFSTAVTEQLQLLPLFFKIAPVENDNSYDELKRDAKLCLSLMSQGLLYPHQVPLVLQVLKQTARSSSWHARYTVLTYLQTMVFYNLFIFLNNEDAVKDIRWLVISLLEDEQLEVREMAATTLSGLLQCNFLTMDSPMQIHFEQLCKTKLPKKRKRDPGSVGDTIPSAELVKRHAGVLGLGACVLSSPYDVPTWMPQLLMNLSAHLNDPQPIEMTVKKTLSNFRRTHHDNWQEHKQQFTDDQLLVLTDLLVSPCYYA

recombinantly expressed and purified human PA200 (from UniProt Q14997 1-1843) (natural protein)
apparent KD of the first PA200 binding event [1]: 40 nM | apparent KD of the second PA200 binding event [1]: 150 nM | apparent KD of the first PA200 binding event [2]: 40 nM | apparent KD of the second PA200 binding event [2]: 150 nM

Cc1cc(=O)oc2cc(NC(=O)[C@H](Cc3ccc(O)cc3)NC(=O)[C@@H](NC(=O)[C@H](CC(C)C)NC(=O)[C@H](CC(C)C)NC(=O)CCC(=O)O)C(C)C)ccc12 [Suc-LLVY-AMC] (Suc-LLVY-{AMC})
fluorogenic AMC release [3]: the baseline CT-L and T-L activities of the i20S and s20S were similar | fluorogenic AMC release [4]: the baseline CT-L and T-L activities of the i20S and s20S were similar

B1: recombinantly expressed and purified human PA200, Q14997 1-1843 (natural protein)
chain: MEPAERAGVGEPPEPGGRPEPGPRGFVPQKEIVYNKLLPYAERLDAESDLQLAQIKCNLGRAVQLQELWPGGLFWTRKLSTYIRLYGRKFSKEDHVLFIKLLYELVSIPKLEISMMQGFARLLINLLKKKELLSRADLELPWRPLYDMVERILYSKTEHLGLNWFPNSVENILKTLVKSCRPYFPADATAEMLEEWRPLMCPFDVTMQKAITYFEIFLPTSLPPELHHKGFKLWFDELIGLWVSVQNLPQWEGQLVNLFARLATDNIGYIDWDPYVPKIFTRILRSLNLPVGSSQVLVPRFLTNAYDIGHAVIWITAMMGGPSKLVQKHLAGLFNSITSFYHPSNNGRWLNKLMKLLQRLPNSVVRRLHRERYKKPSWLTPVPDSHKLTDQDVTDFVQCIIQPVLLAMFSKTGSLEAAQALQNLALMRPELVIPPVLERTYPALETLTEPHQLTATLSCVIGVARSLVSGGRWFPEGPTHMLPLLMRALPGVDPNDFSKCMITFQFIATFSTLVPLVDCSSVLQERNDLTEVERELCSATAEFEDFVLQFMDRCFGLIESSTLEQTREETETEKMTHLESLVELGLSSTFSTILTQCSKEIFMVALQKVFNFSTSHIFETRVAGRMVADMCRAAVKCCPEESLKLFVPHCCSVITQLTMNDDVLNDEELDKELLWNLQLLSEITRVDGRKLLLYREQLVKILQRTLHLTCKQGYTLSCNLLHHLLRSTTLIYPTEYCSVPGGFDKPPSEYFPIKDWGKPGDLWNLGIQWHVPSSEEVSFAFYLLDSFLQPELVKLQHCGDGKLEMSRDDILQSLTIVHNCLIGSGNLLPPLKGEPVTNLVPSMVSLEETKLYTGLEYDLSRENHREVIATVIRKLLNHILDNSEDDTKSLFLIIKIIGDLLQFQGSHKHEFDSRWKSFNLVKKSMENRLHGKKQHIRALLIDRVMLQHELRTLTVEGCEYKKIHQDMIRDLLRLSTSSYSQVRNKAQQTFFAALGAYNFCCRDIIPLVLEFLRPDRQGVTQQQFKGALYCLLGNHSGVCLANLHDWDCIVQTWPAIVSSGLSQAMSLEKPSIVRLFDDLAEKIHRQYETIGLDFTIPKSCVEIAELLQQSKNPSINQILLSPEKIKEGIKRQQEKNADALRNYENLVDTLLDGVEQRNLPWKFEHIGIGLLSLLLRDDRVLPLRAIRFFVENLNHDAIVVRKMAISAVAGILKQLKRTHKKLTINPCEISGCPKPTQIIAGDRPDNHWLHYDSKTIPRTKKEWESSCFVEKTHWGYYTWPKNMVVYAGVEEQPKLGRSREDMTEAEQIIFDHFSDPKFVEQLITFLSLEDRKGKDKFNPRRFCLFKGIFRNFDDAFLPVLKPHLEHLVADSHESTQRCVAEIIAGLIRGSKHWTFEKVEKLWELLCPLLRTALSNITVETYNDWGACIATSCESRDPRKLHWLFELLLESPLSGEGGSFVDACRLYVLQGGLAQQEWRVPELLHRLLKYLEPKLTQVYKNVRERIGSVLTYIFMIDVSLPNTTPTISPHVPEFTARILEKLKPLMDVDEEIQNHVMEENGIGEEDERTQGIKLLKTILKWLMASAGRSFSTAVTEQLQLLPLFFKIAPVENDNSYDELKRDAKLCLSLMSQGLLYPHQVPLVLQVLKQTARSSSWHARYTVLTYLQTMVFYNLFIFLNNEDAVKDIRWLVISLLEDEQLEVREMAATTLSGLLQCNFLTMDSPMQIHFEQLCKTKLPKKRKRDPGSVGDTIPSAELVKRHAGVLGLGACVLSSPYDVPTWMPQLLMNLSAHLNDPQPIEMTVKKTLSNFRRTHHDNWQEHKQQFTDDQLLVLTDLLVSPCYYA
stoichiometry N [5]: 2
